Source: patent US20230250154A1 (CYTONICS, published 2023)

B1: Variant A2M, bait region SEQ ID NO 111 (other)
chain: SVSGKPQYMVLVPSLLHTETTEKGCVLLSYLNETVTVSASLESVRGNRSLFTDLEAENDVLHCVAFAVPKSSSNEEVMFLTVQVKGPTQEFKKRTTVMVKNEDSLVFVQTDKSIYKPGQTVKFRVVSMDENFHPLNELIPLVYIQDPKGNRIAQWQSFQLEGGLKQFSFPLSSEPFQGSYKVVVQKKSGGRTEHPFTVEEFVLPKFEVQVTVPKIITILEEEMNVSVCGLYTYGKPVPGHVTVSICRKYSDASDCHGEDSQAFCEKFSGQLNSHGCFYQQVKTKVFQLKRKEYEMKLHTEAQIQEEGTVVELTGRQSSEITRTITKLSFVKVDSHFRQGIPFFGQVRLVDGKGVPIPNKVIFIRGNEANYYSNATTDEHGLVQFSINTTNVMGTSLTVRVNYKDRSPCYGYQWVSEEHEEAHHTAYLVFSPSKSFVHLEPMSHELPCGHTQTVQAHYILNGGTLLGLKKLSFYYLIMAKGGIVRTGTHGLLVKQEDMKGHFSISIPVKSDIAPVARLLIYAVLPTGDVIGDSAKYDVENCLANKVDLSFSPSQSLPASHAHLRVTAAPQSVCALRAVDQSVLLMKPDAELSASSVYNLLPEKDLTGFPGPLNDQDDEDCINRHNVYINGITYTPVSSTNEKDMYSFLEDMGLKAFTNSKIRKPKMCPQLEARGLEGGGGGSLLGGYPGSSRGGFKEGVEGGPAGAARGKLRKYFPETWIWDLVVVNSAGVAEVGVTVPDTITEWKAGAFCLSEDAGLGISSTASLRAFQPFFVELTMPYSVIRGEAFTLKATVLNYLPKCIRVSVQLEASPAFLAVPVEKEQAPHCICANGRQTVSWAVTPKSLGNVNFTVSAEALESQELCGTEVPSVPEHGRKDTVIKPLLVEPEGLEKETTFNSLLCPSGGEVSEELSLKLPPNVVEESARASVSVLGDILGSAMQNTQNLLQMPYGCGEQNMVLFAPNIYVLDYLNETQQLTPEIKSKAIGYLNTGYQRQLNYKHYDGSYSTFGERYGRNQGNTWLTAFVLKTFAQARAYIFIDEAHITQALIWLSQRQKDNGCFRSSGSLLNNAIKGGVEDEVTLSAYITIALLEIPLTVTHPVVRNALFCLESAWKTAQEGDHGSHVYTKALLAYAFALAGNQDKRKEVLKSLNEEAVKKDNSVHWERPQKPKAPVGHFYEPQAPSAEVEMTSYVLLAYLTAQPAPTSEDLTSATNIVKWITKQQNAQGGFSSTQDTVVALHALSKYGAATFTRTGKAAQVTIQSSGTFSSKFQVDNNNRLLLQQVSLPELPGEYSMKVTGEGCVYLQTSLKYNILPEKEEFPFALGVQTLPQTCDEPKAHTSFQISLSVSYTGSRSASNMAIVDVKMVSGFIPLKPTVKMLERSNHVSRTEVSSNHVLIYLDKVSNQTLSLFFTVLQDVPVRDLKPAIVKVYDYYETDEFAIAEYNAPCSKDLGNADYKDDDDKGASHHHHHH
B2: Variant A2M, bait region SEQ ID NO 113 (other)
chain: SVSGKPQYMVLVPSLLHTETTEKGCVLLSYLNETVTVSASLESVRGNRSLFTDLEAENDVLHCVAFAVPKSSSNEEVMFLTVQVKGPTQEFKKRTTVMVKNEDSLVFVQTDKSIYKPGQTVKFRVVSMDENFHPLNELIPLVYIQDPKGNRIAQWQSFQLEGGLKQFSFPLSSEPFQGSYKVVVQKKSGGRTEHPFTVEEFVLPKFEVQVTVPKIITILEEEMNVSVCGLYTYGKPVPGHVTVSICRKYSDASDCHGEDSQAFCEKFSGQLNSHGCFYQQVKTKVFQLKRKEYEMKLHTEAQIQEEGTVVELTGRQSSEITRTITKLSFVKVDSHFRQGIPFFGQVRLVDGKGVPIPNKVIFIRGNEANYYSNATTDEHGLVQFSINTTNVMGTSLTVRVNYKDRSPCYGYQWVSEEHEEAHHTAYLVFSPSKSFVHLEPMSHELPCGHTQTVQAHYILNGGTLLGLKKLSFYYLIMAKGGIVRTGTHGLLVKQEDMKGHFSISIPVKSDIAPVARLLIYAVLPTGDVIGDSAKYDVENCLANKVDLSFSPSQSLPASHAHLRVTAAPQSVCALRAVDQSVLLMKPDAELSASSVYNLLPEKDLTGFPGPLNDQDDEDCINRHNVYINGITYTPVSSTNEKDMYSFLEDMGLKAFTNSKIRKPKMCPQLEEGEARGSTAQEAGEGPKEEEGLGSSELEGRGSPVSQELGQRKLRKYFPETWIWDLVVVNSAGVAEVGVTVPDTITEWKAGAFCLSEDAGLGISSTASLRAFQPFFVELTMPYSVIRGEAFTLKATVLNYLPKCIRVSVQLEASPAFLAVPVEKEQAPHCICANGRQTVSWAVTPKSLGNVNFTVSAEALESQELCGTEVPSVPEHGRKDTVIKPLLVEPEGLEKETTFNSLLCPSGGEVSEELSLKLPPNVVEESARASVSVLGDILGSAMQNTQNLLQMPYGCGEQNMVLFAPNIYVLDYLNETQQLTPEIKSKAIGYLNTGYQRQLNYKHYDGSYSTFGERYGRNQGNTWLTAFVLKTFAQARAYIFIDEAHITQALIWLSQRQKDNGCFRSSGSLLNNAIKGGVEDEVTLSAYITIALLEIPLTVTHPVVRNALFCLESAWKTAQEGDHGSHVYTKALLAYAFALAGNQDKRKEVLKSLNEEAVKKDNSVHWERPQKPKAPVGHFYEPQAPSAEVEMTSYVLLAYLTAQPAPTSEDLTSATNIVKWITKQQNAQGGFSSTQDTVVALHALSKYGAATFTRTGKAAQVTIQSSGTFSSKFQVDNNNRLLLQQVSLPELPGEYSMKVTGEGCVYLQTSLKYNILPEKEEFPFALGVQTLPQTCDEPKAHTSFQISLSVSYTGSRSASNMAIVDVKMVSGFIPLKPTVKMLERSNHVSRTEVSSNHVLIYLDKVSNQTLSLFFTVLQDVPVRDLKPAIVKVYDYYETDEFAIAEYNAPCSKDLGNADYKDDDDKGASHHHHHH
B3: Variant A2M, bait region SEQ ID NO 112 (other)
chain: SVSGKPQYMVLVPSLLHTETTEKGCVLLSYLNETVTVSASLESVRGNRSLFTDLEAENDVLHCVAFAVPKSSSNEEVMFLTVQVKGPTQEFKKRTTVMVKNEDSLVFVQTDKSIYKPGQTVKFRVVSMDENFHPLNELIPLVYIQDPKGNRIAQWQSFQLEGGLKQFSFPLSSEPFQGSYKVVVQKKSGGRTEHPFTVEEFVLPKFEVQVTVPKIITILEEEMNVSVCGLYTYGKPVPGHVTVSICRKYSDASDCHGEDSQAFCEKFSGQLNSHGCFYQQVKTKVFQLKRKEYEMKLHTEAQIQEEGTVVELTGRQSSEITRTITKLSFVKVDSHFRQGIPFFGQVRLVDGKGVPIPNKVIFIRGNEANYYSNATTDEHGLVQFSINTTNVMGTSLTVRVNYKDRSPCYGYQWVSEEHEEAHHTAYLVFSPSKSFVHLEPMSHELPCGHTQTVQAHYILNGGTLLGLKKLSFYYLIMAKGGIVRTGTHGLLVKQEDMKGHFSISIPVKSDIAPVARLLIYAVLPTGDVIGDSAKYDVENCLANKVDLSFSPSQSLPASHAHLRVTAAPQSVCALRAVDQSVLLMKPDAELSASSVYNLLPEKDLTGFPGPLNDQDDEDCINRHNVYINGITYTPVSSTNEKDMYSFLEDMGLKAFTNSKIRKPKMCPQLEPGLAPGGEEGVEEGGPEEGVEEGGFKEGVEGEPESSGKLRKYFPETWIWDLVVVNSAGVAEVGVTVPDTITEWKAGAFCLSEDAGLGISSTASLRAFQPFFVELTMPYSVIRGEAFTLKATVLNYLPKCIRVSVQLEASPAFLAVPVEKEQAPHCICANGRQTVSWAVTPKSLGNVNFTVSAEALESQELCGTEVPSVPEHGRKDTVIKPLLVEPEGLEKETTFNSLLCPSGGEVSEELSLKLPPNVVEESARASVSVLGDILGSAMQNTQNLLQMPYGCGEQNMVLFAPNIYVLDYLNETQQLTPEIKSKAIGYLNTGYQRQLNYKHYDGSYSTFGERYGRNQGNTWLTAFVLKTFAQARAYIFIDEAHITQALIWLSQRQKDNGCFRSSGSLLNNAIKGGVEDEVTLSAYITIALLEIPLTVTHPVVRNALFCLESAWKTAQEGDHGSHVYTKALLAYAFALAGNQDKRKEVLKSLNEEAVKKDNSVHWERPQKPKAPVGHFYEPQAPSAEVEMTSYVLLAYLTAQPAPTSEDLTSATNIVKWITKQQNAQGGFSSTQDTVVALHALSKYGAATFTRTGKAAQVTIQSSGTFSSKFQVDNNNRLLLQQVSLPELPGEYSMKVTGEGCVYLQTSLKYNILPEKEEFPFALGVQTLPQTCDEPKAHTSFQISLSVSYTGSRSASNMAIVDVKMVSGFIPLKPTVKMLERSNHVSRTEVSSNHVLIYLDKVSNQTLSLFFTVLQDVPVRDLKPAIVKVYDYYETDEFAIAEYNAPCSKDLGNADYKDDDDKGASHHHHHH

Assays:
Test in all cases: cell-based or functional assay
ADAMTS5 = biological target: T1, ADAMTS5 (human, UniProt Q9UNA0 262-622, limits assumed)
T1 sequence (looked up): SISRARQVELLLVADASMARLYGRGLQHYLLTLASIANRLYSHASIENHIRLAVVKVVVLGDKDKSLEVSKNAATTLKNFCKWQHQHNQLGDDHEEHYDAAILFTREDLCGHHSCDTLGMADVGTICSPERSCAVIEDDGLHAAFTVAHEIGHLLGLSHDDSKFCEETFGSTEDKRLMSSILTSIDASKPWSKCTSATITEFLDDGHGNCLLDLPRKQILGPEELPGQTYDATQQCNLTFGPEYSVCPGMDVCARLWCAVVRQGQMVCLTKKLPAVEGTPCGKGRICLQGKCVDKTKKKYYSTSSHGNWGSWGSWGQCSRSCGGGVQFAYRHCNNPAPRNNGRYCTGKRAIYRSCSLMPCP

ADAMTS4 = biological target: T2, ADAMTS4 (human, UniProt O75173 213-685, limits assumed)
T2 sequence (looked up): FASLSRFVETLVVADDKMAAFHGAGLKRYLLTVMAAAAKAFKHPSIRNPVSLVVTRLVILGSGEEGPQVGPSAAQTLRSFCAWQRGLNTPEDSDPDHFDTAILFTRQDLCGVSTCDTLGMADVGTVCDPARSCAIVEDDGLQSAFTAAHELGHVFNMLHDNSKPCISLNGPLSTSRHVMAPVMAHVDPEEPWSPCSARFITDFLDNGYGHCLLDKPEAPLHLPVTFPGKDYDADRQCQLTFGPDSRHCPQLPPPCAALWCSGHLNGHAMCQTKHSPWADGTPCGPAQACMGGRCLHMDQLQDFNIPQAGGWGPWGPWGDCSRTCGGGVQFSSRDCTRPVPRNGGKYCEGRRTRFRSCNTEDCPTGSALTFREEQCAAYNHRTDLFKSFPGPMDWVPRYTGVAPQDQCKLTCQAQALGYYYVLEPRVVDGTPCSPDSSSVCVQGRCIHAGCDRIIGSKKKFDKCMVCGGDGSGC

MMP13 = MMP13 (human, UniProt P45452 104-471, limits assumed)

Row | Binder | Protease Inhibition (% of WT) (ADAMTS5) | Protease Inhibition (% of WT) (ADAMTS4) | Protease Inhibition (% of WT) (MMP13)
1 | B1 | 89 % of WT | 105 % of WT | 113 % of WT
2 | B2 | 92 % of WT | 115 % of WT | 27 % of WT
3 | B3 | 199 % of WT | 108 % of WT | 56 % of WT
